The results in this text go back to the supplement of paper PMC7125110.

To fix the notation:
B1: glmS ribozyme (parent)
chain: AUAAAAGCGCCAGAACUACAGAAAUGUAGUUGACGAGGAGGAGGUUUAUCGAAUUUUCGGCGGAUGCCUCCAAA

± gives the standard error. This sample holds only a part of the variants without activity.

Variants of B1 are the subject of the first data set. Description: self-cleavage kobs at 2500 uM GlcN6P; higher = faster cleavage; RNA array. The conditions noted are these: with glucosamine-6-phosphate. In outline:
(§1)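 On sequenced MiSeq chips, barcoded ribozyme variants were made in situ by E. coli RNA polymerase and followed at 37 °C through a hybridised Cy3 probe. Glucosamine-6-phosphate was flowed in at 40 μM to 10 mM in HEPES/KCl/Mg(OAc)2 buffer. Exponential fits to normalised per-tile medians gave kobs, and weighted Michaelis–Menten fits gave kcat and KM.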
As for G7U G9C U57A G60C, the “self-cleavage kobs at 2500 uM GlcN6P” value was less than 1e-05 s⁻¹.
On the same count and under the same terms, the figure for G29C G35U G40U is less than 1e-05 s⁻¹; for A6G U55A U57G C61A it is less than 1e-05 s⁻¹.
Same read-out and setting: under A12G A39G C67A stands 0.000177 ± 3.7e-05 s⁻¹.
Turning to C8G A42G A52U, the “self-cleavage kobs at 2500 uM GlcN6P” value was less than 1e-05 s⁻¹.
As for A15C A39U G59C U69C, the “self-cleavage kobs at 2500 uM GlcN6P” value was less than 1e-05 s⁻¹.
The same measure, in the same setting: the figure for U45G A48C is 5.95e-05 ± 2.2e-05 s⁻¹; for U30C U47A U57C it is less than 1e-05 s⁻¹; for C8U A48U G60C it is less than 1e-05 s⁻¹.
On the same count and under the same terms, the figure for A6G A12G G51U is less than 1e-05 s⁻¹; for U69C C70U C71G it is 3.82e-05 ± 1.3e-05 s⁻¹.
For the variant A33G A42U U47A A53G, the “self-cleavage kobs at 2500 uM GlcN6P” value was less than 1e-05 s⁻¹.
Same read-out and setting: under G7U G41A A64U stands less than 1e-05 s⁻¹; under U46G G59U G60U, less than 1e-05 s⁻¹.
On the same count and under the same terms, under C10A G35A A36U stands less than 1e-05 s⁻¹; under C11G A12G G29A U31G G43U U49A G51U U54C C61U, less than 1e-05 s⁻¹.
Same read-out and setting: under G7C C10G G51U stands less than 1e-05 s⁻¹; under A36U A42G G60U C70A, less than 1e-05 s⁻¹; under A14U A33C U55G, 7.4e-05 ± 2.1e-05 s⁻¹.
In the case of G38A C50G U69G, the “self-cleavage kobs at 2500 uM GlcN6P” value worked out at 6.3e-05 ± 1.7e-05 s⁻¹.
On the same count and under the same terms, under G13C A36C C71U stands less than 1e-05 s⁻¹; under U57A C61G C70G, 3.93e-05 ± 1.9e-05 s⁻¹.
Still for that read-out and setting: the figure for U30C G41C U45G is less than 1e-05 s⁻¹.
C11G G29C G37U A52C: the “self-cleavage kobs at 2500 uM GlcN6P” value is less than 1e-05 s⁻¹.
For the variant G41A A52C C67G C71A, the “self-cleavage kobs at 2500 uM GlcN6P” value is less than 1e-05 s⁻¹.
The same measure, in the same setting: the figure for A14U U65A U69C is 0.000173 ± 4.9e-05 s⁻¹; for G43U G60A G66A C68G C70G it is less than 1e-05 s⁻¹; for A6C C11U G21U G32C G41U G43U U65G C68U U69G it is less than 1e-05 s⁻¹.
Still for that read-out and setting: the figure for G7U G9A G29A A39G is less than 1e-05 s⁻¹; for C11U U31G A53C it is 0.000433 ± 0.0001 s⁻¹.
On the same count and under the same terms, under A12U G41U U46C stands 9.28e-05 ± 3.6e-05 s⁻¹.
Regarding A39C U56C U65G, the “self-cleavage kobs at 2500 uM GlcN6P” value is 8.8e-05 ± 1.3e-05 s⁻¹.
The same measure, in the same setting: under C8U G32A A33U G35C G37U A39U G51C G60C stands less than 1e-05 s⁻¹; under C16G G66A U69G, 5.74e-05 ± 2.8e-05 s⁻¹; under C11U A12G C16U G40A C68U, less than 1e-05 s⁻¹.
For the variant C11U G13U U30C G44A, the “self-cleavage kobs at 2500 uM GlcN6P” value was less than 1e-05 s⁻¹.
Take A15U C16G C58A: the “self-cleavage kobs at 2500 uM GlcN6P” value amounted to 0.000131 ± 2.8e-05 s⁻¹.
Same read-out and setting: the figure for G13A G32U C67A is 3.47e-05 ± 1.3e-05 s⁻¹; for A48C C67G it is 2.91e-05 ± 1e-05 s⁻¹.
Turning to G32C A33C U47C A64C, the “self-cleavage kobs at 2500 uM GlcN6P” value was less than 1e-05 s⁻¹.
Still for that read-out and setting: the figure for C16U C34A A36C C58A is less than 1e-05 s⁻¹; for G9U A36G U49A G62U C67U C70G it is less than 1e-05 s⁻¹.
Same read-out and setting: under A12U U57C C71G stands 0.000242 ± 0.00011 s⁻¹; under G26U U65A, 0.00219 ± 0.00042 s⁻¹; under C34U C67G C68G, 0.000147 ± 3.9e-05 s⁻¹.
Still for that read-out and setting: the figure for G37U G51C A52G C61U C67U is less than 1e-05 s⁻¹.
For the variant A12C A52C, the “self-cleavage kobs at 2500 uM GlcN6P” value was less than 1e-05 s⁻¹.
The same measure, in the same setting: the figure for C8A G32A A33U U55A is less than 1e-05 s⁻¹.
On to U30G U46C C50A A64C, for which the “self-cleavage kobs at 2500 uM GlcN6P” value was less than 1e-05 s⁻¹.
Still for that read-out and setting: under G7C A53U U54G stands less than 1e-05 s⁻¹; under A15U U54G C58A, 3.84e-05 ± 1.4e-05 s⁻¹.
The same measure, in the same setting: under G13U U31C C70U stands 0.000186 ± 4.5e-05 s⁻¹; under A33G U47C U54C G62A, less than 1e-05 s⁻¹.
Take G37A C68A C70U: the “self-cleavage kobs at 2500 uM GlcN6P” value is less than 1e-05 s⁻¹.
On to U46A U56A C67G, for which the “self-cleavage kobs at 2500 uM GlcN6P” value amounted to 0.000143 ± 6.8e-05 s⁻¹.
The same measure, in the same setting: under C8U A36C G51U C68A stands less than 1e-05 s⁻¹.
On the same count and under the same terms, the figure for G38A G41A C50G C61U is less than 1e-05 s⁻¹; for C10U A14U G44U C61U it is less than 1e-05 s⁻¹.
Regarding G43C G51C U65A, the “self-cleavage kobs at 2500 uM GlcN6P” value is less than 1e-05 s⁻¹.
Consider G29C C67A C68G, for which the “self-cleavage kobs at 2500 uM GlcN6P” value worked out at 7.78e-05 ± 2.8e-05 s⁻¹.
Consider G44U C67U C71A, for which the “self-cleavage kobs at 2500 uM GlcN6P” value came to 3.95e-05 ± 1.3e-05 s⁻¹.
Same read-out and setting: under G35C A36U G41C G51U U65G stands less than 1e-05 s⁻¹.
Consider U45A A52U C71U, for which the “self-cleavage kobs at 2500 uM GlcN6P” value is 0.000244 ± 9.4e-05 s⁻¹.
Same read-out and setting: under G13A G44C U46A A53G stands less than 1e-05 s⁻¹; under A33U G43A U57C, less than 1e-05 s⁻¹; under A14C U46C C70U, 0.000279 ± 5.2e-05 s⁻¹.
Still for that read-out and setting: under A6C U30C A39U U47A C50U A53C stands less than 1e-05 s⁻¹; under A39C C67G C70A, less than 1e-05 s⁻¹; under A15U A52U C67G, 0.000122 ± 3.6e-05 s⁻¹.
G51C G66C C71A: the “self-cleavage kobs at 2500 uM GlcN6P” value was less than 1e-05 s⁻¹.
Turning to C11U A52G C71A, the “self-cleavage kobs at 2500 uM GlcN6P” value was 5.37e-05 ± 2.4e-05 s⁻¹.
On the same count and under the same terms, the figure for A36U U46A U56G is less than 1e-05 s⁻¹; for A15G G35C A64G it is less than 1e-05 s⁻¹.
On the same count and under the same terms, the figure for G7U G29C A42C is less than 1e-05 s⁻¹; for U65A C67G C71U it is 3.53e-05 ± 1.5e-05 s⁻¹.
Still for that read-out and setting: under A14C A15G U46C C61G stands less than 1e-05 s⁻¹; under A15C U31C C71A, 0.000185 ± 3.9e-05 s⁻¹.

The variants in the next data set derive from B1. Description: self-cleavage kobs at 10000 uM GlcN6P; higher = faster cleavage; RNA array. The conditions noted are these: with glucosamine-6-phosphate. In outline:
as §1
As to U45G A48C, the “self-cleavage kobs at 10000 uM GlcN6P” value amounted to 0.000117 ± 2.2e-05 s⁻¹.
Same read-out and setting: under C8U A48U G60C stands less than 1e-05 s⁻¹.
Turning to A14U U65A U69C, the “self-cleavage kobs at 10000 uM GlcN6P” value stood at 0.000191 ± 3.3e-05 s⁻¹.
On the same count and under the same terms, the figure for A48C C67G is 2e-05 ± 7.5e-06 s⁻¹; for G13U U31C C70U it is 0.000187 ± 3.2e-05 s⁻¹.
The same measure, in the same setting: the figure for U46A U56A C67G is 0.000316 ± 7.6e-05 s⁻¹.
Same read-out and setting: the figure for C8U A36C G51U C68A is less than 1e-05 s⁻¹; for G44U C67U C71A it is 4.71e-05 ± 1.2e-05 s⁻¹; for G35C A36U G41C G51U U65G it is less than 1e-05 s⁻¹.
A14C U46C C70U: the “self-cleavage kobs at 10000 uM GlcN6P” value amounted to 0.000482 ± 9.4e-05 s⁻¹.
